Source: patent US20020151590, “Compositions and methods for regulating circadian rhythyms” (published 2002)

Legend:
CLOCK:BMAL1 heterodimer = CLOCK:BMAL1 heterodimer (Homo sapiens, UniProt O15516;O00327 O15516:1-846,O00327:1-626); experiment: EMSA; 150 mM KCl, 20 mM Tris-HCl pH 7.6, 5 mM MgCl2, 200 ng poly(dI-dC), 4 C; RXRa/RARa with 9cisRA/tRA tested as inhibitors; gel result not shown in text; conditions: tags: reticulocyte lysate (TNT), CMX plasmids; label: 32P
From the text: (§1) A double-stranded [γ³²P]dATP-labeled consensus oligonucleotide, […] […] The samples were loaded directly onto 4% polyacrylamide-TBE gels to separate MOP4/CLOCK:BMAL1 bound DNA from free DNA. The gels were dried and analyzed on a PhosphorImager.

[1] = molecular target: MOP4 (NPAS2):BMAL1 heterodimer (Homo sapiens, UniProt Q99743;O00327 Q99743:1-824,O00327:1-626); experiment: as above; conditions: tags: reticulocyte lysate (TNT), CMX plasmids; label: 32P
From the text: as §1

Sequence of CLOCK:BMAL1 heterodimer (O15516 whole entry, chain 1 of 2): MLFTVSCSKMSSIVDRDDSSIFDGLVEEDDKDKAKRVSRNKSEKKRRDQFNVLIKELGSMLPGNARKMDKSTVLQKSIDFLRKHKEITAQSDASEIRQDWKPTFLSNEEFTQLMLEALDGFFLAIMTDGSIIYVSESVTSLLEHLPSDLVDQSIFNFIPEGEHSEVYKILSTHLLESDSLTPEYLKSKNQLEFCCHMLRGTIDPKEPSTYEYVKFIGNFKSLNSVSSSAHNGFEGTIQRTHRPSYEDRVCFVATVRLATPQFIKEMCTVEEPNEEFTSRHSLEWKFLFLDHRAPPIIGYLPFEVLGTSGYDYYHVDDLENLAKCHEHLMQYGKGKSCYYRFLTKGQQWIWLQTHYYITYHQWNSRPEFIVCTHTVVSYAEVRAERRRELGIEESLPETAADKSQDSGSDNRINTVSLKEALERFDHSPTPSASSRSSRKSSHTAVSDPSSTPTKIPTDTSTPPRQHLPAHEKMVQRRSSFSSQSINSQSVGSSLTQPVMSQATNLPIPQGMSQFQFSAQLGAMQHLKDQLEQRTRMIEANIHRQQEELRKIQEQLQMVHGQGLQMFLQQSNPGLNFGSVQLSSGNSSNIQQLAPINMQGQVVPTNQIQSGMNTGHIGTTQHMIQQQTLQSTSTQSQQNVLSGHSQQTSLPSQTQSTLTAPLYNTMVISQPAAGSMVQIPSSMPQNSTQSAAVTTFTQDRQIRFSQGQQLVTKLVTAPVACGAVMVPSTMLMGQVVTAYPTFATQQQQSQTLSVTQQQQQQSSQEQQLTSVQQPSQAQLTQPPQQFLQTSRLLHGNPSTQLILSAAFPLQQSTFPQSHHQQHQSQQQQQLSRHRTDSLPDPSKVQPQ
Sequence of CLOCK:BMAL1 heterodimer (O00327 whole entry, chain 2 of 2): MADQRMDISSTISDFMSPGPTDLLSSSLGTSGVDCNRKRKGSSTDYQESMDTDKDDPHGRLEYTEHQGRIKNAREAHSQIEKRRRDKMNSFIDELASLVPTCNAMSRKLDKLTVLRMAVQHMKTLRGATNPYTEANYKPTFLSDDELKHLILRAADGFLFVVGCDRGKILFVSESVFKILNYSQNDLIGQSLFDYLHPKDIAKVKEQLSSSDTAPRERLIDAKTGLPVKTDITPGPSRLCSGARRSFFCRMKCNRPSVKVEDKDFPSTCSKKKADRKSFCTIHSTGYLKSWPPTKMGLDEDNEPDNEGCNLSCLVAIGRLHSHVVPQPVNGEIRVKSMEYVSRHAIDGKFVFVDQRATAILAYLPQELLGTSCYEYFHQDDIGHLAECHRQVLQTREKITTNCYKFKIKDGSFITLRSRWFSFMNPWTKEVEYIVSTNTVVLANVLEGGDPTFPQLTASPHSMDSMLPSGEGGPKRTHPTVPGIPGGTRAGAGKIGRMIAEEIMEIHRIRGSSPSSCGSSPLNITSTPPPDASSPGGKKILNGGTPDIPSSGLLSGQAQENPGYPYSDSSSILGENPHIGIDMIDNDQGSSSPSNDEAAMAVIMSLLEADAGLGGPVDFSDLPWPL
Sequence of MOP4 (NPAS2):BMAL1 heterodimer (Q99743 whole entry, chain 1 of 2): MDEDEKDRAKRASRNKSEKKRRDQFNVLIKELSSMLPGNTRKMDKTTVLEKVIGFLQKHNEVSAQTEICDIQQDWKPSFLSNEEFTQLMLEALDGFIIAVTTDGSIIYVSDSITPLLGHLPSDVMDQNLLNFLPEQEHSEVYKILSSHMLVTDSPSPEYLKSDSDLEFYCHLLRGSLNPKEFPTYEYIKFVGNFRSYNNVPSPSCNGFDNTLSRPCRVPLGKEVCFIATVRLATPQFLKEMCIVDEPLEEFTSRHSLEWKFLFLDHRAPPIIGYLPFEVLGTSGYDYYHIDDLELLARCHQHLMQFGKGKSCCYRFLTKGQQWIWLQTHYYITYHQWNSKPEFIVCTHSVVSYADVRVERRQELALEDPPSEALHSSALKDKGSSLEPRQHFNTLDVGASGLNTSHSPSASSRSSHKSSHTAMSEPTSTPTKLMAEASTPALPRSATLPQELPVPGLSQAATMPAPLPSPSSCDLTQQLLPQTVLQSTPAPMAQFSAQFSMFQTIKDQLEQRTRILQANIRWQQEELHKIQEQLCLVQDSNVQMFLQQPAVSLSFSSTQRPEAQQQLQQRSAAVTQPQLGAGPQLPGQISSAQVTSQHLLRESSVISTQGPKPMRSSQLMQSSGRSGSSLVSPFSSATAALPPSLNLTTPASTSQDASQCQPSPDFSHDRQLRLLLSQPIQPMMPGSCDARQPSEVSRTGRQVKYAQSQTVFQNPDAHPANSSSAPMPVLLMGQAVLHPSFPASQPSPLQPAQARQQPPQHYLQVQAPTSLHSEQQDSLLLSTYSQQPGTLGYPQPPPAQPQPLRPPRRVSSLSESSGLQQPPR
Sequence of MOP4 (NPAS2):BMAL1 heterodimer (O00327 whole entry, chain 2 of 2): as the sequence (O00327 whole entry, chain 2 of 2) above

B1: E-box consensus oligonucleotide (dsDNA)
DNA 1: GGGACACGTGACCC
DNA 2: GGGTCACGTGTCCC
binding result (CLOCK:BMAL1 heterodimer): binds
binding result [1]: binds
